Test results published in the nanobody polyreactivity screen of Harvey et al. (2022).

Assay: yeast display, Sf9 membrane polyspecificity reagent, FACS + sequencing; frameworks hold sequencing errors
Method in brief: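 Nanobodies from a synthetic yeast display library (Saccharomyces cerevisiae BJ5465), induced 36–48 hours with galactose, were stained 1 hour at 4 °C with 10% biotinylated, detergent-solubilized Sf9 membrane reagent, enriched on streptavidin microbeads, then FACS-sorted. Anti-HA (expression) and streptavidin (reagent binding) fluorescence set low and high (top ~1%) gates. Polyreactivity labels come from the gate of origin. Genes were colony-PCR amplified, MiSeq 2 × 250 sequenced and filtered by CDR length.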

Row | Sequence | polyreactivity (PSR sort gate)
1 | QGQLVESGGGLVQAGGSLRLSCAASGSTFQGYAMGWYRQAPGKERELVAAISGRSGSTYYADSVKGRFTISRDNAKNTVYLQMNSLKPEDTADYYCAAGIPFRQRLRRYYYWGQGSQVTVSS | high polyreactivity
2 | QVKLVESGGGLVQAGGSLRLSCAASGSTFPRYAMGWYRQAPGKEREFVAVIWSGGSTYYADSVKGRFTISRDNAKNTVYFQMNSLIPEDTAVYYCAAEYHTLSKYSGYATHDYWGQGTQVTVSS | low polyreactivity
3 | QVQLVESGGGLVQAGGSLRLSCAASGSTFFRYAMGWYRQAPGKERELVAVINRGGSTYYADSVKGRFTISRDNAKNTVYLQMNSLKPEDTAVYYCAKRVFYPGAYRYYYWGQGTQVTVSS | high polyreactivity
4 | QVHHLESRGGLVQEGGSLPISCGASGSTFLRYALGWYRQAPGKVRELVADITTSGGITYYADSVKGRFTISRDNAKYTVYLQLNSLKPEDTAVYDCDYWGQGTQVTVSS | low polyreactivity
5 | QVQLVESGGGLVQAGGSLRLSCAASGYMGWYRQAPGKERELVATISGSGGSTYYADSVKGRFTISRDNAKNTVYLQMNSLKPEDTAVYYCTTEIWGVNRSGYDYWGQGTQVTVSS | low polyreactivity
6 | QVQLVESGGGLVQAGGSLRLSCAASGSILVEYAMGWYRQAPGKERELVAAISSNGGSTYYADSVKGRFTISRDNAKNTVYLQMNSLKPEDTAVYYCATRQSWSDYYLNVDYDYWGQGTKVTVSS | low polyreactivity
7 | QVQLVESGGGLVQAGGSLRLSCAASGFILGYNAMGWYRQEPGKERELVADITFSGGGTNYADSVKGRFTISRDNAKNTVYLQMNSLKPEDTAVYYCNAAAFSQLRVRYDYWGQGTQVTVSS | low polyreactivity
8 | QVQLVESGGGLVQAGVSLLLSCAASGRTFYANAMGWYSQAPGKEREFVAAISYGTGGTYYADSVKGRFTISRDNAKNTVYLQMNTLKPEDTAVYYCAASLYWGIYGWMGYWGQGTQVTVSS | high polyreactivity
9 | QVQLVESGGGLVQAGGSLRLSCAASGFTFGYNAMGWYRQAPGKEREMVAAINYGGSTDYADSVKGRFTISRDYAKNTVYLQMNSLKPEDTAVYYCNIADRYAYWVRGRHRYGYWGQGTQVTVSS | low polyreactivity
10 | QVQLVESGGGLVQAGGSLRLSCAASGRTFRWYAMGWYRQAPGKERELVARITYSGGSTYYADSVKGRFTISRDNAKNTVYLQMNSLKPEDTAVYYCAAKRYTGSSSIYYYWGQGTQVTVSS | high polyreactivity
11 | QVQLVESGGGLVQAGGSLRLSCAASGSILGTYAMGWYRQAPGKERELVAAISASGRTSYADSEKGRFTISRDNAKNTVYLQMNSLKPEDTAVYDCNASNYFVLINDPDAAPWLYDYWGHGTQVTVSS | low polyreactivity
12 | QVQLVESGGGLVQAGGSLRLSCAASGRIFPYYVMGWYRQAPGKERELVASISSGGNTNYADSVKGRFTISRDNAKNTVYLQMNSLKPEDTAVYYCAARWRRKGYYWARFDYWGQGTQVTVSS | high polyreactivity
13 | QVQLVESGGGLVQAGGSLRLSCAASGSIFNYNMGWYRQAPGKERELVAAVSTNYADTVKGRFTISRDNAKNTVYLQMNSLKPEDTAVYYCGVTPEKSGDEYDYGGQGTQVTVSS | low polyreactivity
14 | QVQLVESGGGLVQAGGSLRLSCAAYGRTFYGYAMGWYRQAPGKEREFFAAITWRGGSTYYADSVKGRFSISRDNAKNNVFLQMNSLKPEDTAVYYCAADYRVYTRYGLRKFDYWGQCTQVTVSS | high polyreactivity
15 | QVQHVESGGGLVQAGGSLRLSCAASGRIFQHYPMGSYRQAPGKETEFVAAISSSSGSTYADSVKGRFTISRDNAKNTVYLQMNSLNPEDTAVYYCNRDYMPFKFYGGSHDMEYWGQGTQVTVSS | low polyreactivity
16 | QVQLVESGGGLVQAGGSLRLSCAASGFIFYVYAMGWYRQAPGKERELVATITSGGSTNYADSVKGRFTISRDNAKNTVYLQMNSLKPEDTAVYYCAADGWQSQYEYDYWGQGTQVTVSS | low polyreactivity
17 | QVQLVESGGGLVQAGGSLRLSCAASGITFYYNAMGWYRQAPGKERELVAAIRSAGSTYYADSVKGRFTISRDNAKNSVYVQMNSLKPEDTAVDYWGQGTQVTVSS | low polyreactivity
18 | QVQLVESGGGLVQAGGSLRLSCAAYGRTFHAYAKGWYRQAPGKGRELVAAITRTGTTHYADSVKGRFTISRDNAKNTVYLQMNSLKPEDTAVYYCAAQHVRVDAQFVLQGYDYWGQGTQVTVSS | low polyreactivity
19 | QDQLVESGGGLVQAGGSLRLSCAASGSTFVRSVMGWYRQAPGKERELVAAISRRGGSTYYADSVKGRFTISRDNAKNTVYLQMNSQKPEDTAVYYCARTVGYRTLLESDSWGQGTQVTVAS | high polyreactivity
20 | QVQHVESGGGLFQAGGSLRLSCAASGQNFRPYALGWDRQAPGKERELVAAIRWSDDSTYFAVSVKGRFTILRDNAKNTVYLQLNSLKPEDTAVYYCNARWWYPTYYYWGQGSQVTVSS | high polyreactivity
21 | QVQLVESGGGLVQAGGSLRLSCAASGSTFIENAMGWYRQAPGKERELVAAINRGGTTYYADSVKGRFTISRDNAKNTVYLQMNSLKPEDTAVYYCAADDPSYANRFIHDYWGQGTHVTVSS | low polyreactivity
22 | QVQLVESGGGLVQAGGSLRLSCAASGSTSCIYAMGCYRQAPGKERELVAAISGSGVSTYYADSVKGRFTISRDNAKNTVYLQMNSLKPEDTAVYYCAAGYYGNGVFEYDYWGQGTQVTVSS | low polyreactivity

Row | Sequence | polyreactivity (PSR sort gate)
23 | QVQLVESGGGLVQAGGSLRLSCAASGRTFFFNAMGWYRQAPGIERELVATISWNGGDTYYADSVKGRFTISRDNAKNTVYLQMNSLKPEDTAVYDCNARVLWGQGTQVTVSS | high polyreactivity
24 | QVQLVESGGGLVQAGGSIRLSCAASGRTFDPYSRGWYRQAPGKERELVAAISRSGGSTYYADSVKGRFTISRDNAKNTVYLQLNSLKPEDTAVYYFDADASRYYYEYDYWGQGTQVNVSS | high polyreactivity
25 | QVQLVESGGGLVQAGGSLRLSCAASGSIYDYNAMGWYRQAPGKERELVAAISASGGSTYYADSVKGRFTISRDNAKNTVYLQMNSLKPEDTAVYYCAAGYWSYWSLRMDYWGQGTQVTVSS | high polyreactivity
26 | QVQLVESGGGLVQAGGSLRLSCAASGSIISFYAMGWYRQAPGKEREMVAVISDIGGSTYYADSVKGRFTISRDNAKNTDYLEMNSLKPEDTAVYYCAAGCHARTWYAYYYWGQGTQVTVSS | low polyreactivity
27 | QVQLVESGGGLVQAGGSLRLSCAASGYTFDKYVMGWYRQAPGKERELVAAISRSGGRTYYADSVKGRFTISRDNAKNTVYLQMNSLKPEDTAVYYCNALWFYNGLSYEYWGQGTQVTVSS | high polyreactivity
28 | QVQLVESGGGLVQAGGSLRLSCAASGSTFGAYAMGWYRQAPGKERELVAAINRGTSTNYADSVKGRFTISRDNAKNTVYLQMNSLKPEDTAVYYCAVAVLPWQLYSESYAEYDYWGQGTQVTVSS | low polyreactivity
29 | QVQLVESGGGLVQARGSLRLSCAASGRIFPVNTMGWYRQAPGKERELVAAITSGGGTYYADSVKGRFTISRDNAKNTVYFQMNSLKPEDTAVYYWTAPEGRKPYDSWGQGTQVTVSS | low polyreactivity
30 | QDQLVESGGGLLQAGGTLRLSCAASGPTFRAKAMGWNRQSPGKERELVAAITWDGGSRYYADSVKGRFTISRDYAKNTVYLQMNSLKPEYTAVYYCNTYPYLWGQGTLVTVSS | low polyreactivity
31 | QVQLVESGGGLVHAGGSLRLSCAASGLTFYGYTMGCYRQAPGKERQLVADISISGGSTRYADSVKGRFTISRDNAKNTVYLQMISLKPEDTAVYYCARDDIYYSNIYDYWGQGTQVTVSS | low polyreactivity
32 | QVQLVESGGGLVQAGGSLRLSCAASGSTFTGYAMGWYRQAPGKERELVAAITRGGSTYYADSVKGRFTISRDNAKNTVYLQMNSLKPEDTAVYYCAAKPSSREPTGPRYYYWGQGTQVTVSS | high polyreactivity
33 | QVQLVESCGGLVQAGGSLRLSCAASGRIFGIYSMGWYRQAPGKEREVVARITKSGGSTYYADSVKGRFTISRDNAKNTVYLQMNSLKPEDTAVYYCAASYYGKRDRAGPYYSFDYWGQGTQVTVSS | high polyreactivity
34 | QVQLVESGGGLVQAGGSLRLSCAASGSTFTPYAMGWYRQAPGKEREFVARISWTGGSTYYADSVKGRFTISRDIAKNTVYLQMNSLKPEDTAVYYCNADRYRWYDHGYYYWGQGTQVTVSS | high polyreactivity
35 | QVQLVESGGGLVQAGGSLRLTCAASGRIFSRYAMGWYRQAPGKERELVASITRGGSTYADSVKGRFTISRDNAKNTVYLQMNSLKPEDTAVYYCNATYFTRYRQYDYWGQGTQVTVSS | low polyreactivity
36 | QVQLVESGGGLVQAGGSLRLSCAASGFTFVRYTMGWYRQAPGKERELVAVIRRGGSTYYADSVKGRFTISRDNAKNTVYLPMKSLKPEDTAVYYCNALSALAVEDGYWGQGTQVTVSS | low polyreactivity
37 | QVQLVESGGGLVQARGSLRLSCAASGRIFTTYAMGWYRQAPGKESELVAAISQTGGSTYYADSVKGRFTISRDNAKNTVYLKMNSLKPEDTAVYYCNAGPAGYYDDDYWGQGTQVTVSS | low polyreactivity
38 | QVQLVESGGGLVQAGGSLRLSCAASGRISFRILWDGIDRRLGKKGSWLPLLTNTGSTNYADSVKGRFTISRDNAKNTVYLQIHSLKPEDTAVYDCNADPTGGSSYPAYFEYDYWGQGTQVTVSS | low polyreactivity
39 | QVQLVESGGGLVQAGGSLRLSCAASGSIFLVYGMGWYRPAPGKERELVAAISRTGGRTYYADSVKGRFTISRDNSKNTVYLQMNSLKPEDTAVYYCAAAAQRPEGYYWGQGTQVTVSS | high polyreactivity
40 | QVQLVESGGGLVQAGGSLRLSCAPSGRIFHYNAMGWYRQAPGKERELVAAIDYGGSSTYYADSVKGRFTISRDNAKNTVYLEMNSLKPEDTAVYYCWGQATQVTVSS | low polyreactivity
41 | QLQLVESGGGLVQAGGSLRLSCAASVFTLRGYAMGWYRQATCKERELVADISGGGSTDYADSVKVRFTISRDNAKNTVYLQMNSLKPEDTAVYYCAAYGYLWWEMDYWGQGTQVTVSS | high polyreactivity
42 | QVQLVESGGGLVQAGGSLRLSCAASGRIFGNYAMGWYRPATGKESELVAAISGGGSTYYADSVKGRFTISRDNAKNTVYLQMNSVKPEDTAVYYCAARFMWSVFGRKGGYWGQGTHVTVSS | low polyreactivity
43 | QVQLVESGGGLVQAGGSLRLSCAASGITFSEYAMGWYRQAPGKERELVAAITSGGNTYYADSVKGRFTISRDNAKNTVYLQMNSLKPEDTAVYYCAATFSSAFAYYYWGQGTQVTVSS | low polyreactivity
